Experimental data: patent publication US20200323973A1 (INSTITUTE FOR SYSTEMS BIOLOGY, published 2020)
Bridge positions count the residues as written; N and C are the ends. Ends that are not written are not given here. * marks the point of attachment. Biotin = O=C1N[C@H]2[C@H](CS[C@H]2CCCCC(=O)*)N1

Legend:
[1] = target: recombinant full-length MrkA protein with an N-terminal 6xHis-SUMO-tag (MyBiosource, MBS1248970) (Klebsiella pneumoniae) (UniProt P12267); assay: sandwich ELISA 2, 25 nM MrkA; PCC immobilised
[2] = target: recombinant full-length MrkA protein with an N-terminal 6xHis-SUMO-tag (MyBiosource, MBS1248970) (Klebsiella pneumoniae) (UniProt P12267); assay: sandwich ELISA 6, 25 nM MrkA; reference compound, ratio to itself
[3] = target: recombinant full-length MrkA protein with an N-terminal 6xHis-SUMO-tag (MyBiosource, MBS1248970) (Klebsiella pneumoniae) (UniProt P12267); assay: sandwich ELISA 4, 100 nM MrkA; reference compound, ratio to itself
[4] = target: recombinant full-length MrkA protein with an N-terminal 6xHis-SUMO-tag (MyBiosource, MBS1248970) (Klebsiella pneumoniae) (UniProt P12267); assay: sandwich ELISA 2, 25 nM MrkA; reference compound, ratio to itself
[5] = target: recombinant full-length MrkA protein with an N-terminal 6xHis-SUMO-tag (MyBiosource, MBS1248970) (Klebsiella pneumoniae) (UniProt P12267); assay: sandwich ELISA 5, 25 nM MrkA; reference compound, ratio to itself
[6] = target: recombinant full-length MrkA protein with an N-terminal 6xHis-SUMO-tag (MyBiosource, MBS1248970) (Klebsiella pneumoniae) (UniProt P12267); assay: sandwich ELISA 3, 50 nM MrkA; reference compound, ratio to itself
[7] = target: recombinant full-length MrkA protein with an N-terminal 6xHis-SUMO-tag (MyBiosource, MBS1248970) (Klebsiella pneumoniae) (UniProt P12267); assay: sandwich ELISA: biotinylated PCC on NeutrAvidin plate, His-SUMO-MrkA titrated, anti-His detection (FIG. 3A)
[8] = target: recombinant full-length MrkA protein with an N-terminal 6xHis-SUMO-tag (MyBiosource, MBS1248970) (Klebsiella pneumoniae) (UniProt P12267); assay: sandwich ELISA 1, [MrkA] N/A; reference compound, ratio to itself
[9] = target: recombinant full-length MrkA protein with an N-terminal 6xHis-SUMO-tag (MyBiosource, MBS1248970) (Klebsiella pneumoniae) (UniProt P12267); assay: ELISA with the PCC immobilised, full-length recombinant MrkA (FIG. 3A)
[10] = target: recombinant full-length MrkA protein with an N-terminal 6xHis-SUMO-tag (MyBiosource, MBS1248970) (Klebsiella pneumoniae) (UniProt P12267); assay: ELISA with the PCC immobilised, full-length recombinant MrkA
[11] = target: recombinant full-length MrkA protein with an N-terminal 6xHis-SUMO-tag (MyBiosource, MBS1248970) (Klebsiella pneumoniae) (UniProt P12267); assay: sandwich ELISA 4, 100 nM MrkA; PCC immobilised
[12] = target: recombinant full-length MrkA protein with an N-terminal 6xHis-SUMO-tag (MyBiosource, MBS1248970) (Klebsiella pneumoniae) (UniProt P12267); assay: sandwich ELISA 6, 25 nM MrkA; PCC immobilised
[13] = target: recombinant full-length MrkA protein with an N-terminal 6xHis-SUMO-tag (MyBiosource, MBS1248970) (Klebsiella pneumoniae) (UniProt P12267); assay: sandwich ELISA 3, 50 nM MrkA; PCC immobilised
[14] = target: T1, MrkA on Klebsiella pneumoniae cells (assembled into type 3 fimbriae) (Klebsiella pneumoniae, UniProt P12267 23-202); assay: whole-cell ELISA, biotinylated PCC and SAv-HRP; KPPR1 (FIG. 5B); also two MrkA-expressing strains at 5 µM (FIG. 5C)
T1 construct: whole, on cells; One molecule is used for all three strains; The strain is named under assay; MrkA oligomerises in the fimbriae and the number of copies is not fixed; also called MrkA-expressing K. pneumoniae cells; wild type KPPR1 (ATCC 43816)
T1 sequence: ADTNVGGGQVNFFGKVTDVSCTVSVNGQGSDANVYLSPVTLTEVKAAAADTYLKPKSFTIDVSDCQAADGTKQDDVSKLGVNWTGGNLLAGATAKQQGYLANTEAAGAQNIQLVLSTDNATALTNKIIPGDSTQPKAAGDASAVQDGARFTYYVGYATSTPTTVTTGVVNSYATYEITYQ

[15] = target: T1, MrkA on Klebsiella pneumoniae cells …; assay: whole-cell ELISA on wild type KPPR1 (ATCC 43816) grown in G-CAA; biotinylated PCC, SAv-HRP
[16] = target: T1, MrkA on Klebsiella pneumoniae cells …; assay: flow cytometry on K. pneumoniae BAA 2146, Alexafluor 488 anti-DNP detection
SynEp 1 (SEQ ID NO:38) = target: T2, SynEp 1 (SEQ ID NO:38) (Klebsiella pneumoniae, also: one residue replaced by azidolysine, position not given here); assay: sandwich ELISA: biotinylated SynEp immobilised, cy(LLFFF)-DNP titrated, anti-DNP detection; background biotin-PEG6 subtracted
T2 peptide: {Biotin-peg5}-FFGKVTDVSCTVSV

[17] = target: T1, MrkA on Klebsiella pneumoniae cells …; assay: whole-cell ELISA on two strains of MrkA-expressing K. pneumoniae (FIG. 5C); biotinylated PCC, SAv-HRP

cy(LLFAF) (SEQ ID NO:10) (peptide) was tested. Which Relative affinity (ratio of ELISA signal to cy(LLFFF)) [1] did it give?
Its Relative affinity (ratio of ELISA signal to cy(LLFFF)) is 0.1.

Which Relative affinity (ratio of ELISA signal to cy(LLFFF)) [2] does the source give for “biotinylated cy(LLFFF) (SEQ ID NO:5) (peptide)” here?
Its Relative affinity (ratio of ELISA signal to cy(LLFFF)) is 1.

What about the Relative affinity (ratio of ELISA signal to cy(LLFFF)) [3] of the same molecule?
Its Relative affinity (ratio of ELISA signal to cy(LLFFF)) is 1.

And the Relative affinity (ratio of ELISA signal to cy(LLFFF)) [4]?
Its Relative affinity (ratio of ELISA signal to cy(LLFFF)) is 1.

What about the Relative affinity (ratio of ELISA signal to cy(LLFFF)) [5] of the same molecule?
The Relative affinity (ratio of ELISA signal to cy(LLFFF)) was 1.

And the Relative affinity (ratio of ELISA signal to cy(LLFFF)) [6]?
The Relative affinity (ratio of ELISA signal to cy(LLFFF)) was 1.

And the EC50 [7]?
The EC50 was 50 nM.

What about the Relative affinity (ratio of ELISA signal to cy(LLFFF)) [8] of the same molecule?
Its Relative affinity (ratio of ELISA signal to cy(LLFFF)) is 1.

And the EC50 [9]?
Its EC50 is 230 nM.

What does the source list for cy(TTFFF) (SEQ ID NO:35) (peptide)?
affinity (likely) [10]: 1 µM; Relative affinity (ratio of ELISA signal to cy(LLFFF)) [11]: 0.04

How did the Relative affinity (ratio of ELISA signal to cy(LLFFF)) [12] turn out when cy(HLFFF) (SEQ ID NO:13) (peptide) was run?
Its Relative affinity (ratio of ELISA signal to cy(LLFFF)) is 0.81.

Which affinity (likely) [10] does the source give for cy(YRHLG) (SEQ ID NO:56) (peptide) here?
Its affinity (likely) is 1 µM.

How did the Relative affinity (ratio of ELISA signal to cy(LLFFF)) [1] turn out when cy(LAFFF) (SEQ ID NO:8) (peptide) was run?
The Relative affinity (ratio of ELISA signal to cy(LLFFF)) was 0.26.

How did the affinity (likely) [10] turn out when cy(GVHRL) (SEQ ID NO:57) (peptide) was run?
Its affinity (likely) is 1 µM.

cy(AAFFF) (SEQ ID NO:14) (peptide) was tested. Which Relative affinity (ratio of ELISA signal to cy(LLFFF)) [13] did it give?
Its Relative affinity (ratio of ELISA signal to cy(LLFFF)) is 0.15.

For “biotinylated cy(LLFFA) (SEQ ID NO:11) (peptide)”, which Relative affinity (ratio of ELISA signal to cy(LLFFF)) [1] is on record?
The Relative affinity (ratio of ELISA signal to cy(LLFFF)) was 0.04.

Which Relative affinity (ratio of ELISA signal to cy(LLFFF)) [12] does the source give for cy(DLFFF) (SEQ ID NO:12) (peptide) here?
Its Relative affinity (ratio of ELISA signal to cy(LLFFF)) is 0.21.

How did the Relative affinity (ratio of ELISA signal to cy(LLFFF)) [1] turn out when cy(ALFFF) (SEQ ID NO:7) (peptide) was run?
The Relative affinity (ratio of ELISA signal to cy(LLFFF)) was 0.53.

Which Relative affinity (ratio of ELISA signal to cy(LLFFF)) [1] does the source give for cy(LLAFF) (SEQ ID NO:9) (peptide) here?
The Relative affinity (ratio of ELISA signal to cy(LLFFF)) was 0.59.

B1: biotinylated cy(LLFFF) (SEQ ID NO:5) (peptide)
peptide: LLFFF-azidolysine
modifications: triazole N-C; not fully specified (N-terminus); also: biotin-PEG tag by assay: Bio-Peg10-peg10, Bio-peg10 or Bio-peg5
notes: The biotin-PEG tags differ between assays; They are non-peptide, so one molecule is used and the tag is named under assay; also called cy(X-LLFFF-Z)
Does B1 bind [14]?
Result: binds

B2: biotinylated cy(LLFFA) (SEQ ID NO:11) (peptide)
peptide: LLFFA-propargylglycine
modifications: triazole N-C; not fully specified (N-terminus); printed as cy(Z-LLFFA-X); also: biotin-PEG tag: Bio-peg10 or biotin-peg5 (whole-cell ELISA)
notes: also called Compound Number 6; cy(Z-LLFFA-X)
Does B2 bind [15]?
Result: no binding (tested: 5 µM down to 5 nM)

B3: cy(LLFFF)-DNP (SEQ ID NO:5) (peptide)
peptide: LLFFF-azidolysine
modifications: triazole N-C; not fully specified (N-terminus); printed as cy(LLFFF)-DNP; also: linker peg5 or peg5-peg5 by assay
notes: also called DNP-conjugated cy(LLFFF); lead AR-PCC
Does B3 bind [16]?
Result: binds

Does B3 bind (SynEp 1 (SEQ ID NO:38))?
Result: no binding (tested: 500 nM)

B4: biotinylated dummy ligand cy(HNGPT) (SEQ ID NO:18) (peptide)
peptide: HNGPT
modifications: macrocycle: propargylglycine before and azidolysine after the printed residues, joined by a triazole (cy); N-terminal biotin-peg5 tag
Does B4 bind [17]?
Result: no binding
